Measurements reported in patent US20140087995A1 (published 2014).
Numbered stars: 1 amine (or outer) side, 2 acyl side, 3 side chain; on linkers, the order of the positions; unused ones are H or OH. Bridge positions count the residues as written; N and C are the ends. Side chains are listed from the residue outwards. Ends that are not written are not given here. * marks the point of attachment. C20 diacid = O=C(O)CCCCCCCCCCCCCCCCCCC(=O)*; C18 diacid = O=C(O)CCCCCCCCCCCCCCCCC(=O)*; C16 diacid = O=C(O)CCCCCCCCCCCCCCC(=O)*; γGlu = O=C(O)[C@H](CCC(=O)[*:2])N[*:1]; C14 diacid = O=C(O)CCCCCCCCCCCCC(=O)*; AEEA = NCCOCCOCC(=O)O

B1: N^ε1-[2-[2-[2-[[2-[2-[2-[[(4S)-4-carboxy-4-(19-carboxynonadecanoylamino)butanoyl]amino]ethoxy]ethoxy]acetyl]amino]ethoxy]ethoxy]acetyl]-[Arg17,Pro21,Pro27,His34 … (peptide)
peptide: K([AEEA-AEEA-γGlu-C20 diacid])CNTATCATQRLANFLRHSSPNFGAIPSSTNVGHNTY-NH2
modifications: disulfide 2-7; N-terminus assumed
SMILES: CC[C@H](C)[C@H](NC(=O)[C@H](C)NC(=O)CNC(=O)[C@H](Cc1ccccc1)NC(=O)[C@H](CC(N)=O)NC(=O)[C@@H]1CCCN1C(=O)[C@H](CO)NC(=O)[C@H](CO)NC(=O)[C@H](Cc1c[nH]cn1)NC(=O)[C@H](CCCNC(=N)N)NC(=O)[C@H](CC(C)C)NC(=O)[C@H](Cc1ccccc1)NC(=O)[C@H](CC(N)=O)NC(=O)[C@H](C)NC(=O)[C@H](CC(C)C)NC(=O)[C@H](CCCNC(=N)N)NC(=O)[C@H](CCC(N)=O)NC(=O)[C@@H](NC(=O)[C@H](C)NC(=O)[C@@H]1CSSC[C@H](NC(=O)[C@@H](N)CCCCNC(=O)COCCOCCNC(=O)COCCOCCNC(=O)CC[C@H](NC(=O)CCCCCCCCCCCCCCCCCCC(=O)O)C(=O)O)C(=O)N[C@@H](CC(N)=O)C(=O)N[C@@H]([C@@H](C)O)C(=O)N[C@@H](C)C(=O)N[C@@H]([C@@H](C)O)C(=O)N1)[C@@H](C)O)C(=O)N1CCC[C@H]1C(=O)N[C@@H](CO)C(=O)N[C@@H](CO)C(=O)N[C@H](C(=O)N[C@@H](CC(N)=O)C(=O)N[C@H](C(=O)NCC(=O)N[C@@H](Cc1c[nH]cn1)C(=O)N[C@@H](CC(N)=O)C(=O)N[C@H](C(=O)N[C@@H](Cc1ccc(O)cc1)C(N)=O)[C@@H](C)O)C(C)C)[C@@H](C)O
notes: also called compound 97
B2: N{-1}-[(4S)-4-carboxy-4-(19-carboxynonadecanoylamino)butanoyl]-Gly[Arg1,His14,Arg17,Pro21,Pro27]-h-amylin (peptide)
peptide: {C20 diacid-γGlu}-GRCNTATCATQRLAHFLRHSSPNFGAIPSSTNVGSNTY-NH2
modifications: disulfide 3-8
SMILES: CC[C@H](C)[C@H](NC(=O)[C@H](C)NC(=O)CNC(=O)[C@H](Cc1ccccc1)NC(=O)[C@H](CC(N)=O)NC(=O)[C@@H]1CCCN1C(=O)[C@H](CO)NC(=O)[C@H](CO)NC(=O)[C@H](Cc1c[nH]cn1)NC(=O)[C@H](CCCNC(=N)N)NC(=O)[C@H](CC(C)C)NC(=O)[C@H](Cc1ccccc1)NC(=O)[C@H](Cc1c[nH]cn1)NC(=O)[C@H](C)NC(=O)[C@H](CC(C)C)NC(=O)[C@H](CCCNC(=N)N)NC(=O)[C@H](CCC(N)=O)NC(=O)[C@@H](NC(=O)[C@H](C)NC(=O)[C@@H]1CSSC[C@H](NC(=O)[C@H](CCCNC(=N)N)NC(=O)CNC(=O)CC[C@H](NC(=O)CCCCCCCCCCCCCCCCCCC(=O)O)C(=O)O)C(=O)N[C@@H](CC(N)=O)C(=O)N[C@@H]([C@@H](C)O)C(=O)N[C@@H](C)C(=O)N[C@@H]([C@@H](C)O)C(=O)N1)[C@@H](C)O)C(=O)N1CCC[C@H]1C(=O)N[C@@H](CO)C(=O)N[C@@H](CO)C(=O)N[C@H](C(=O)N[C@@H](CC(N)=O)C(=O)N[C@H](C(=O)NCC(=O)N[C@@H](CO)C(=O)N[C@@H](CC(N)=O)C(=O)N[C@H](C(=O)N[C@@H](Cc1ccc(O)cc1)C(N)=O)[C@@H](C)O)C(C)C)[C@@H](C)O
notes: 38 residues: Gly added before position 1 of human amylin; also called compound 99
B3: N^ε1-[(4S)-4-carboxy-4-(15-carboxypentadecanoylamino)butanoyl]-[Arg17,Pro21,Pro27,His34]-h-amylin (peptide)
peptide: K([γGlu-C16 diacid])CNTATCATQRLANFLRHSSPNFGAIPSSTNVGHNTY-NH2
modifications: disulfide 2-7; N-terminus assumed
SMILES: CC[C@H](C)[C@H](NC(=O)[C@H](C)NC(=O)CNC(=O)[C@H](Cc1ccccc1)NC(=O)[C@H](CC(N)=O)NC(=O)[C@@H]1CCCN1C(=O)[C@H](CO)NC(=O)[C@H](CO)NC(=O)[C@H](Cc1c[nH]cn1)NC(=O)[C@H](CCCNC(=N)N)NC(=O)[C@H](CC(C)C)NC(=O)[C@H](Cc1ccccc1)NC(=O)[C@H](CC(N)=O)NC(=O)[C@H](C)NC(=O)[C@H](CC(C)C)NC(=O)[C@H](CCCNC(=N)N)NC(=O)[C@H](CCC(N)=O)NC(=O)[C@@H](NC(=O)[C@H](C)NC(=O)[C@@H]1CSSC[C@H](NC(=O)[C@@H](N)CCCCNC(=O)CC[C@H](NC(=O)CCCCCCCCCCCCCCC(=O)O)C(=O)O)C(=O)N[C@@H](CC(N)=O)C(=O)N[C@@H]([C@@H](C)O)C(=O)N[C@@H](C)C(=O)N[C@@H]([C@@H](C)O)C(=O)N1)[C@@H](C)O)C(=O)N1CCC[C@H]1C(=O)N[C@@H](CO)C(=O)N[C@@H](CO)C(=O)N[C@H](C(=O)N[C@@H](CC(N)=O)C(=O)N[C@H](C(=O)NCC(=O)N[C@@H](Cc1c[nH]cn1)C(=O)N[C@@H](CC(N)=O)C(=O)N[C@H](C(=O)N[C@@H](Cc1ccc(O)cc1)C(N)=O)[C@@H](C)O)C(C)C)[C@@H](C)O
B4: N^ε1-[(4S)-4-carboxy-4-(13-carboxytridecanoylamino)butanoyl]-[Arg17,Pro21,Pro27,His34]-h-amylin (peptide)
peptide: K([γGlu-C14 diacid])CNTATCATQRLANFLRHSSPNFGAIPSSTNVGHNTY-NH2
modifications: disulfide 2-7; N-terminus assumed
SMILES: CC[C@H](C)[C@H](NC(=O)[C@H](C)NC(=O)CNC(=O)[C@H](Cc1ccccc1)NC(=O)[C@H](CC(N)=O)NC(=O)[C@@H]1CCCN1C(=O)[C@H](CO)NC(=O)[C@H](CO)NC(=O)[C@H](Cc1c[nH]cn1)NC(=O)[C@H](CCCNC(=N)N)NC(=O)[C@H](CC(C)C)NC(=O)[C@H](Cc1ccccc1)NC(=O)[C@H](CC(N)=O)NC(=O)[C@H](C)NC(=O)[C@H](CC(C)C)NC(=O)[C@H](CCCNC(=N)N)NC(=O)[C@H](CCC(N)=O)NC(=O)[C@@H](NC(=O)[C@H](C)NC(=O)[C@@H]1CSSC[C@H](NC(=O)[C@@H](N)CCCCNC(=O)CC[C@H](NC(=O)CCCCCCCCCCCCC(=O)O)C(=O)O)C(=O)N[C@@H](CC(N)=O)C(=O)N[C@@H]([C@@H](C)O)C(=O)N[C@@H](C)C(=O)N[C@@H]([C@@H](C)O)C(=O)N1)[C@@H](C)O)C(=O)N1CCC[C@H]1C(=O)N[C@@H](CO)C(=O)N[C@@H](CO)C(=O)N[C@H](C(=O)N[C@@H](CC(N)=O)C(=O)N[C@H](C(=O)NCC(=O)N[C@@H](Cc1c[nH]cn1)C(=O)N[C@@H](CC(N)=O)C(=O)N[C@H](C(=O)N[C@@H](Cc1ccc(O)cc1)C(N)=O)[C@@H](C)O)C(C)C)[C@@H](C)O
B5: N^ε1-[(4S)-4-carboxy-4-(17-carboxyheptadecanoylamino)butanoyl]-[Arg17,Pro21,Pro27,His34]-h-amylin (peptide)
peptide: K([γGlu-C18 diacid])CNTATCATQRLANFLRHSSPNFGAIPSSTNVGHNTY-NH2
modifications: disulfide 2-7; N-terminus assumed
SMILES: CC[C@H](C)[C@H](NC(=O)[C@H](C)NC(=O)CNC(=O)[C@H](Cc1ccccc1)NC(=O)[C@H](CC(N)=O)NC(=O)[C@@H]1CCCN1C(=O)[C@H](CO)NC(=O)[C@H](CO)NC(=O)[C@H](Cc1c[nH]cn1)NC(=O)[C@H](CCCNC(=N)N)NC(=O)[C@H](CC(C)C)NC(=O)[C@H](Cc1ccccc1)NC(=O)[C@H](CC(N)=O)NC(=O)[C@H](C)NC(=O)[C@H](CC(C)C)NC(=O)[C@H](CCCNC(=N)N)NC(=O)[C@H](CCC(N)=O)NC(=O)[C@@H](NC(=O)[C@H](C)NC(=O)[C@@H]1CSSC[C@H](NC(=O)[C@@H](N)CCCCNC(=O)CC[C@H](NC(=O)CCCCCCCCCCCCCCCCC(=O)O)C(=O)O)C(=O)N[C@@H](CC(N)=O)C(=O)N[C@@H]([C@@H](C)O)C(=O)N[C@@H](C)C(=O)N[C@@H]([C@@H](C)O)C(=O)N1)[C@@H](C)O)C(=O)N1CCC[C@H]1C(=O)N[C@@H](CO)C(=O)N[C@@H](CO)C(=O)N[C@H](C(=O)N[C@@H](CC(N)=O)C(=O)N[C@H](C(=O)NCC(=O)N[C@@H](Cc1c[nH]cn1)C(=O)N[C@@H](CC(N)=O)C(=O)N[C@H](C(=O)N[C@@H](Cc1ccc(O)cc1)C(N)=O)[C@@H](C)O)C(C)C)[C@@H](C)O

biological target: T1, human amylin receptor (amylin 3(a) receptor: human calcitonin receptor coexpressed with RAMP-3) (human, UniProt P30988 25-474; O60896 24-148); assay: cell-based or functional assay
T1 sequence (looked up) 1: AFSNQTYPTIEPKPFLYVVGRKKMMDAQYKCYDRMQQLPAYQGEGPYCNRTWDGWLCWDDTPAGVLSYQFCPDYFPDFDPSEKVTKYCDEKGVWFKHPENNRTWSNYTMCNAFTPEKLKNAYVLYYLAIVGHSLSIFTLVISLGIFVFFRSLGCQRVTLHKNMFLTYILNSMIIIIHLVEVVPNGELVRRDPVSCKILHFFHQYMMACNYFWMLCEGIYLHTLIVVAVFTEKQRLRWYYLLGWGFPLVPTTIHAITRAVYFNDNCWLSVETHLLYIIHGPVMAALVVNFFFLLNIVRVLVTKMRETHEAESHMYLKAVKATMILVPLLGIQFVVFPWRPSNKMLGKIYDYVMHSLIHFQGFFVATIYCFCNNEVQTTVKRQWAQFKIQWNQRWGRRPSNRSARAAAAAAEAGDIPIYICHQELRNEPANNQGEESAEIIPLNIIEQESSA
T1 sequence (looked up) 2: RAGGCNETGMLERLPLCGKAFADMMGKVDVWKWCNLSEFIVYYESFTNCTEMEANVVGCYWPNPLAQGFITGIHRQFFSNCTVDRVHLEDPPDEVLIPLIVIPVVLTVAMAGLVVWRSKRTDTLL

Row | Binder | hAmylin-R funct. EC50 (pM)
1 | B1 | 356
2 | B2 | 82
3 | B3 | 34
4 | B4 | 28
5 | B5 | 96

biological target: T2, human calcitonin receptor (human, UniProt P30988 25-474); assay: cell-based or functional assay
T2 sequence (looked up): T1 sequence (looked up) 1

Row | Binder | Ratio hCT/hAmylin funct. | hCTR funct. EC50 (pM)
6 | B1 | 33 | 11800
7 | B2 | 10 | 818
8 | B3 | 65.1 | 2210
9 | B4 | 38.8 | 1090
10 | B5 | 60.9 | 5850
